Experimental data published in FireProtDB (doi:10.1021/bi000610b).
Values joined by “and” are separate entries in the source; they are usually repeats but may differ in a detail not shown here. Identical values can stand only once.

Details: Chlamydomonas reinhardtii, Thermal, glycine-HCl 10 mM, reversible: yes, whole UniProt chain shown

B1: Thioredoxin H-type wild type, P80028 (protein)
chain: MGGSVIVIDSKAAWDAQLAKGKEEHKPIVVDFTATWCGPCKMIAPLFETLSNDYAGKVIFLKVDVDAVAAVAEAAGITAMPTFHVYKDGVKADDLVGASQDKLKALVAKHAAA
pH 2.13, Fluorescence
  Tm: 35.4 °C
  unfolding enthalpy (van 't Hoff): 98 kJ/mol
pH 2.25, CD
  Tm: 37.7 °C and 34.5 °C
  unfolding enthalpy (van 't Hoff): 90 kJ/mol and 75 kJ/mol
pH 2.25, DSC
  Tm: 40 °C
pH 2.25, Fluorescence
  Tm: 42.7 °C
  unfolding enthalpy (van 't Hoff): 133 kJ/mol
pH 2.5, CD
  Tm: 47.3 °C and 46.6 °C
  unfolding enthalpy (van 't Hoff): 178 kJ/mol and 161 kJ/mol
pH 2.5, DSC
  Tm: 51.1 °C
  unfolding enthalpy (calorimetric): 220 kJ/mol
pH 2.5, Fluorescence
  Tm: 49.2 °C
  unfolding enthalpy (van 't Hoff): 171 kJ/mol
pH 2.75, CD
  Tm: 57.5 °C and 53.4 °C
  unfolding enthalpy (van 't Hoff): 249 kJ/mol and 227 kJ/mol
pH 3, CD
  Tm: 63 °C and 61.4 °C
  unfolding enthalpy (van 't Hoff): 320 kJ/mol and 273 kJ/mol
pH 3, DSC
  Tm: 66.4 °C
  unfolding enthalpy (calorimetric): 324 kJ/mol
pH 3, Fluorescence
  Tm: 65.3 °C
  unfolding enthalpy (van 't Hoff): 280 kJ/mol
pH 3.25, DSC
  Tm: 73.6 °C
  unfolding enthalpy (calorimetric): 338 kJ/mol
